# Where two headings read alike, the source gives them in different places. Non-standard residues stand in square brackets, D forms with d. Residues, ends and D or L forms follow the SMILES beside them. *: point of attachment. Dolaproine = CO[C@@H]([C@@H]1CCCN1)[C@@H](C)C(=O)O; Dil = CC[C@H](C)[C@H](NC)[C@@H](CC(=O)O)OC; X1 = C[C@@H](N*)[C@@H](O)c1ccccc1; NMeV = CN[C@H](C(=O)O)C(C)C
# B1: 429-SMARCB1: 429 construct delivering SmarcB1-myc binding sequence to nucleus (peptide)
# chain: DFYGCLLDLSLGVPSLGWRRRCITAWLPSSIPKKKRKVDGQKLRDAFTWNMNEKLMTPEMFSEILCDDLD
# modifications: 429 conjugate
# B2: DFYGCLLDLSLGVPSLGWRRRCITAWLPSSIPKKKRKVDGQKLRDAFTWNMNEKLMTPEMFSEILCDDLD (peptide)
# chain: DFYGCLLDLSLGVPSLGWRRRCITAWLPSSIPKKKRKVDGQKLRDAFTWNMNEKLMTPEMFSEILCDDLD
# modifications: not fully specified
# Tests used:
# CHLA06 cells [1] = test: Dose response / cell viability in CHLA06 cells; type: cell-based
# Description: (§1) Biological activity of the peptides was determined using various assays. To determine proliferative activity, cells were plated at 5×10^3 cells per well in a 96-well microtiter plate. Samples and controls were added and the plates incubated for 24, 48 and 72 hours at 37° C. Viability was determined by adding WST-1 and reading at […] over 1-4 hours. Alternatively, viability was determined using a kit such as the EZViable calcein AM cell viability assay (BioVision) or the Live/Dead Cell imaging kit (ThermoFisher). Induction of cell events such as apoptosis was determined using reagents such as Cell Event Caspase 3/7 reagent (ThermoFisher).
# A431 cells = test: Dose response / cell viability in A431 cells; type: cell-based, human
# Description: as §1
# (§2) Cells were plated at 5000 cells/well in 100 ul D10 on day 0.100 ul of PDCs were added and titrated 1:1 in D10 (starting concentration=500 nM). WST-1 was added at 72 hours and the plates read over 5 hours at […] in a Promega GloMax.
# A pocket biologic (peptide or antibody) having an internalization portion, a linker, and a localization signal was developed to deliver a drug or biological therapeutic into the cell. […] 429-MMAE-1 and 429-NLS-Panobinostat constructs were developed for in vivo studies. G292 cell lines and A431 cell lines were used in the in vivo studies. G292 cells were derived from a primary osteosarcoma of a person. […] A431 cells were established from an epidermoid carcinoma in the skin (epidermis) of a patient. Epidermal growth factor (EGF) stimulation of A431 cells induces rapid tyrosine phosphorylation of intracellular signaling proteins which control cellular processes such as growth, proliferation and apoptosis. […] 429-MMAE affected cell viability in G292 cell lines (FIG. 16A-FIG. 17). 429-MMAE at 50 nm, 125 nm, 250 nm, 500 nm concentrations and OV-MMAE conjugates at 50 nm, 125 nm, 250 nm, 500 nm concentrations were compared to DMSO and MMAE at 50 nm in G292 cells.
# microtubules = test: ViaFluor 647 live cell microtubule stain (FIG. 6); type: cell-based; conditions: ViaFluor 647 stain, 60 minutes at 37° C.
# Description: Cells were stained with ViaFluor 647 live cell microtubule stain (Biotium). Cells were treated as in FIG. 3 and stain with ViaFluor for 60 minutes at 37° C.
# [2] = tested on: cancer cell lines of different lineages; test: Internalization of OV-8 in cell lines; type: cell-based; conditions: FIG. 2
# ATRT cell lines = test: Apoptosis in ATRT cell lines, combination with tazemetostat; type: cell-based
# CHLA06 cells [3] = test: Confocal microscopy of 429-SMARCB1 in CHLA06 cells; type: cell-based; conditions: confocal fluorescent microscopy
# HCT116 cells = test: Dose response / cell viability in HCT116 cells; type: cell-based, human; conditions: HCT116 Myc-reporter cells
# Description: as §1, §2
# Myc transcription = Myc transcription in HCT116 Myc-reporter cells; type: cell-based, human; conditions: for inhibition of Myc transcription: dose series
# CHLA06 cells [4] = test: Caspase assay (apoptosis) in CHLA06 cells; type: cell-based; conditions: SMARCB1 conjugate and tazemetostat treatments
# Description: as §1
# 429-MMAE was also compared with 429-SM in various cell lines. 429-SM represents 429-Smarc-MMAE and consists of 429-linker-NLS-SMARCB1 mimic to which 1 or 2 MMAE molecules are conjugated through the cysteines. CHLA06 cells were plated at 10,000 cells/well in B27-5 overnight. Samples were added and incubated for 48 hours at 37° C. Caspase 3/7 reagent was added and plates were read after 30 minutes at room temperature. […] Induction of apoptosis is directly correlated with drug concentration (i.e., higher the concentration of drug, the higher the apoptotic effect). […] 429-SM was also effective in A431 and HCT116 cells (FIG. 42C-42D).
# CHLA02 cells = test: Caspase activity / apoptosis in CHLA02 cells; type: cell-based; conditions: CHL02 cells; SMARCB1 Mimic (F) and tazemetostat treatments
# Description: as §1
molecule,measurement,setting,value
"COc1cc([C@@H]2c3cc4c(cc3[C@H](O)[C@H]3COC(=O)[C@@H]23)OCO4)cc(OC)c1OC [PPP, Picropodophyllin]",effect on CHLA06 cells (dose response),CHLA06 cells [1]; FIG. 38A,active
same,effectiveness compared to 429-MMAE in terms of IC50,CHLA06 cells [1]; FIG. 38A,less effective
"Cc1[nH]c2ccccc2c1CCNCc1ccc(/C=C/C(=O)NO)cc1 [Panobinostat, reference compound]",IC50,"A431 cells; Homo sapiens, A-431, A431 cells, FIG. 20B, FIG. 24A, read-out: IC50 value",108 nM
same,IC50,"A431 cells; Homo sapiens, A-431, printed as A431 treated with Panobinostat, in the sentence on CHLA06 cells, FIG. 24B, read-out: IC50",> 500 nM
C[C@]1(O)C[C@@H](c2nc(-c3ccc4ccc(-c5ccccc5)nc4c3)c3c(N)nccn32)C1 [Linsitinib],effect on CHLA06 cells (dose response),CHLA06 cells [1]; FIG. 38A,no effects
"CC[C@H](C)[C@@H]([C@@H](CC(=O)N1CCC[C@H]1[C@H](OC)[C@@H](C)C(=O)N[C@H](C)[C@@H](O)c1ccccc1)OC)N(C)C(=O)[C@@H](NC(=O)[C@@H](NC)C(C)C)C(C)C [MMAE, monomethyl auristatin E, reference compound] (H-[NMeV]V[Dil][Dolaproine]-X1)",IC50,"A431 cells; A431 cells, MMAE at 1:3 dilutions, FIG. 20A, read-out: IC50 value (four-parameter non-linear regression)",0.0712 nM
same,disruption of microtubules,microtubules,disrupt microtubules
Nc1ncnc2c1c(-c1cccc(OCc3ccccc3)c1)cn2C1CC(CN2CCCC2)C1 (centres unmarked) [NVP-ADW742],effect on CHLA06 cells (dose response),CHLA06 cells [1]; FIG. 38A,no effects
FSFGNSSLRKLPGVVRRRRCARGVWR [Skwx-OV-8],internalization into cancer cell lines,[2],internalize
B1,apoptotic effect in combination with tazemetostat,ATRT cell lines,synergistic apoptotic effect
same,cell viability,CHLA06 cells [1]; 429-SMARCB1 and tazemetostat treatments,reduced cell viability
same,internalization,CHLA06 cells [3]; CHLA06 cells,internalized
same,co-localization with histones,CHLA06 cells [3],co-localizes with histones
same,HCT116 cell viability compared to a control,HCT116 cells,affects HCT116 cell viability
same,Myc transcription compared to the control,Myc transcription; 5 nM,significantly affects Myc transcription
same,Myc transcription compared to the control,Myc transcription; 50 nM,significantly affects Myc transcription
same,inhibition of Myc transcription,Myc transcription,inhibits Myc transcription
same,caspase activity,CHLA06 cells [4],increased caspase activity
B2,CHLA06 cell viability compared to 429 control,CHLA06 cells [1]; 50 ug,significantly affected CHLA06 cell viability
same,caspase activity,CHLA02 cells,significantly increased caspase activity
same,HCT116 cell viability compared to a control,HCT116 cells,inhibited
same,inhibition of Myc transcription,Myc transcription,inhibited
same,caspase activity,CHLA06 cells [4],significantly increased caspase activity
